Blank lines part the entries; values can stand above or below the molecule they belong to.
Tests used:
B55 = settings: Eya3 mutant; cited from earlier work
Source text: The modeled Eya3 peptide (residues 65–86) interacts mostly with residues on blades 3 and 4 of the β-propeller on the B55 surface (including residues on the β2D and β3A loop, β3B and β3C loop, and β3D and β4A loop) and with residues on the α1 and α2 helix positioned above blade 5, as well as the α2 and β6A loop (Fig. 1F). In particular, residue H79^Eya3 forms pi–pi or pi–cation stacking with H179^B55 and a hydrogen bond with D197^B55 (Fig. 2A). […] Furthermore, Y77^Eya3 forms a hydrogen bon ...

B55α (His-B55) = assay: Microscale thermophoresis (MST) binding of Eya3 to labeled His-B55; parameters: species or system human
Source text: We expressed and purified Eya3 protein from Escherichia coli and the His-B55α subunit from insect cells (Fig. S1). In the remainder of the article, we will use B55 to represent B55α for simplicity and PP2A–B55 to represent the holoenzyme containing the A, B55, and C subunits. We labeled His-B55 with the RED–Tris–NTA dye and carried out microscale thermophoresis (MST) experiments with increasing concentrations of Eya3.
The modeled Eya3 peptide (residues 65–86) interacts mostly with residues on blades 3 and 4 of the β-propeller on the B55 surface (including residues on the β2D and β3A loop, β3B and β3C loop, and β3D and β4A loop) and with residues on the α1 and α2 helix positioned above blade 5, as well as the α2 and β6A loop (Fig. 1F). In particular, residue H79^Eya3 forms pi–pi or pi–cation stacking with H179^B55 and a hydrogen bond with D197^B55 (Fig. 2A). […] Furthermore, Y77^Eya3 forms a hydrogen bond with the main chain carbonyl of L225^B55, and K75^Eya3 forms another hydrogen bond with Y337^B55 (Fig. 2, B and C). […] We expressed and purified Eya3 K75A, Y77A, and H79A mutant proteins from E. coli and carried out MST experiments with fluorescently labeled His-B55. […] While we were working on the structure of PP2A–B55 + Eya3, Padi et al. ([84]) published the cryo-EM structure of PP2A–B55 in complex with an Eya3 peptide (residues 62–108) on bioRxiv.
(§1) FLAG-hB55, FLAG-hEya3, GFP, and GFP-B55i were cloned into the pCAG vector; (GST)-mEya3 was cloned into pGEX-6p1; His-hB56γ1 was cloned into pGEX-4T1; and His-hB55 was cloned in pFASTbac, all using the NEBuilder HiFi DNA Assembly Cloning Kit (New England Biolabs). h and m represent human and mouse proteins, respectively.
GST-mEya3 and mutants were expressed in BL21 cells. Cells were lysed in lysis buffer containing 50 mM Tris (pH 7.5), 250 mM NaCl, 5% glycerol, 1 mM DTT, and protease inhibitor cocktail (PIC; Thermo Scientific). Lysis was done in ice with sonication using 4 × 45 s pulses with 2-min off periods. NaCl was brought up to 0.5 M using 5 M NaCl, and the lysate was centrifuged for 40 min at 18,000g. Supernatant was gravity-flown over glutathione resin twice. Resin was washed with 100 ml of lysis buffer. GST was cleaved with PreScission protease and eluted into lysis buffer. Eluates were pooled and concentrated with Amicon Ultra Centrifugal filters. Concentrated protein was separated on a pre-equilibrated S200 column for size-exclusion chromatography. Peaks were combined, concentrated again, aliquoted, and stored at −80 °C.
His-B55 was expressed in Hi5 cells. […]
His-B55 or His-B56γ1 labeled with […] (NanoTemper) was added to serial dilutions of mEya3 in PBS with 0.05% Tween-20. The samples were then read with a Monolith NT.115^Pico (NanoTemper) according to the manufacturer’s instructions.

[1] = test system: triple-negative breast cancer (TNBC) tumor; settings: PP2A–B55α binding mutant; cited from earlier work
Source text: (§2) We have shown that Eya proteins directly interact with the PP2A–B55α but not B56 subunit. […] Moreover, all Eya family members can interact with PP2A–B55α through analogous disordered regions in their NTDs ([27], [46]).

Myc = settings: PP2A–B55α binding mutant; cited from earlier work
Source text: as §2

[2] = test system: Eya3 and B55 complex (FLAG-hEya3 + His-B55); assay: Mass photometry of Eya3 and B55 complex formation and its disruption by B55i; type: binding, human; settings: no B55i, 20 mM Tris (pH 8), 250 mM NaCl, 1 mM MnCl2, 0.5 mM TCEP, molar ratio 1.5:1, diluted to 100 nM
Source text: To evaluate the effect of B55i in cells, we expressed the B55i peptide as a GFP fusion on a plasmid in 66cl4 TNBC cells.
B, MST binding affinity curve showing the interaction between mEya3 and His-B55α. C, B55i disruption of the mEya3 and His-B55α interaction on MST. […] The amount of GFP and GFP-B55i expressed was also quantified using eGFP absorbance at 488 nm and normalized to total protein in the cell lysate. The datasets in all panels represent three independent biological replicates. Error bars represent the standard deviation. Statistical data analysis was done using Fmax tests followed by two-tailed, homoscedastic t tests. ∗p < 0.05, ∗∗p < 0.01, and ∗∗∗∗p < 0.0001. MST, microscale thermophoresis; TNBC, triple-negative breast cancer. […] It is uncertain whether these count as molecular weight results or as excluded spectrum labels.
as §1
hEya3 and PP2A–B55 were combined in 20 mM Tris (pH 8), 250 mM NaCl, 1 mM MnCl2, and 0.5 mM TCEP at a molar ratio of 1.5:1. […] Immediately prior to reading, the solution was diluted to 100 nM. Samples were analyzed on the Refeyn TwoMP (Refeyn).

PP2A–B55 = settings: malachite green assay, peptide substrate KRpTIRR; 50 mM Tris [pH 7.5], 50 mM NaCl, 5 mM MgCl2, 0.1 mM EDTA; cited from earlier work
Source text: To identify the factor that led to this discrepancy, we first repeated our as ...

Myc pT58 = settings: cited from earlier work
Source text: The weak inhibition of the PP2A–B55 activity by its B55 binders may have different consequences i ...

B1: H79A: Eya3 H79A mutant protein from E. coli (protein, UniProt Q99504 1-573, looked up, variant H79A)
Protein phosphatase EYA3: MEEEQDLPEQPVKKAKMQESGEQTISQVSNPDVSDQKPETSSLASNLPMSEEIMTCTDYIPRSSNDYTSQMYSAKPYAAILSVPVSETAYPGQTQYQTLQQTQPYAVYPQATQTYGLPPFGALWPGMKPESGLIQTPSPSQHSVLTCTTGLTTSQPSPAHYSYPIQASSTNASLISTSSTIANIPAAAVASISNQDYPTYTILGQNQYQACYPSSSFGVTGQTNSDAESTTLAATTYQSEKPSVMAPAPAAQRLSSGDPSTSPSLSQTTPSKDTDDQSRKNMTSKNRGKRKADATSSQDSELERVFLWDLDETIIIFHSLLTGSYAQKYGKDPTVVIGSGLTMEEMIFEVADTHLFFNDLEECDQVHVEDVASDDNGQDLSNYSFSTDGFSGSGGSGSHGSSVGVQGGVDWMRKLAFRYRKVREIYDKHKSNVGGLLSPQRKEALQRLRAEIEVLTDSWLGTALKSLLLIQSRKNCVNVLITTTQLVPALAKVLLYGLGEIFPIENIYSATKIGKESCFERIVSRFGKKVTYVVIGDGRDEEIAAKQHNMPFWRITNHGDLVSLHQALELDFL
interaction between Eya3 and B55 (B55): dramatically reduce the interaction between Eya3 and B55
binding between Eya3 and B55 (mutants) (B55α (His-B55); fluorescently labeled His-B55, vs Eya3 WT): significantly reduce the binding between Eya3 and B55
TNBC tumor metastasis [1]: impeded
Myc stabilization (Myc): impeded Myc stabilization

Kd (B55α (His-B55); His-B55 labeled with Red–Tris–NTA dye, serial dilutions of Eya3 (mEya3, E. coli), PBS with 0.05% Tween-20, Monolith NT.115 Pico, three independent biological replicates (stated for Fig. 1A)): 1040 nM
B2: Eya3: Eya3 protein purified from Escherichia coli (mEya3) or HEK293 FreeStyle cells (FLAG-hEya3) (protein)
chain: MEEEQDLPEQPVKKAKMQESGEQTISQVSNPDVSDQKPETSSLASNLPMSEEIMTCTDYIPRSSNDYTSQMYSAKPYAHILSVPVSETAYPGQTQYQTLQQTQPYAVYPQATQTYGLPPFGALWPGMKPESGLIQTPSPSQHSVLTCTTGLTTSQPSPAHYSYPIQASSTNASLISTSSTIANIPAAAVASISNQDYPTYTILGQNQYQACYPSSSFGVTGQTNSDAESTTLAATTYQSEKPSVMAPAPAAQRLSSGDPSTSPSLSQTTPSKDTDDQSRKNMTSKNRGKRKADATSSQDSELERVFLWDLDETIIIFHSLLTGSYAQKYGKDPTVVIGSGLTMEEMIFEVADTHLFFNDLEECDQVHVEDVASDDNGQDLSNYSFSTDGFSGSGGSGSHGSSVGVQGGVDWMRKLAFRYRKVREIYDKHKSNVGGLLSPQRKEALQRLRAEIEVLTDSWLGTALKSLLLIQSRKNCVNVLITTTQLVPALAKVLLYGLGEIFPIENIYSATKIGKESCFERIVSRFGKKVTYVVIGDGRDEEIAAKQHNMPFWRITNHGDLVSLHQALELDFL
modifications: left off: FLAG, end not stated, kept
Eya3 and B55 complex formation [2]: Eya3 and B55 form a complex
phosphatase activity of PP2A–B55 (PP2A–B55): increases the phosphatase activity of PP2A–B55
dephosphorylation of pT58 on Myc (Myc pT58): clearly increases the dephosphorylation of pT58 on Myc

From publication PMC12246617, “Cryo-EM structures reveal the PP2A–B55α and Eya3 interaction that can be disrupted by a peptide inhibitor” (The Journal of Biological Chemistry, 2025)
